This note sets out measurements from article PMC5927468.

The target of this assay is sorting nexin 9 (SNX9) (UniProt Q9Y5X1). The assay can be described thus: anti-eGFP nanobody pulldown, SNX9 immunoblot. The settings on record: reference: Dyn1a wild type-eGFP; sites S774,S778.

Turning to “dynamin-1 (Dyn1a) (from UniProt Q05193) Dyn1a S774/8A-eGFP”, the fold change worked out at 3.6.
